Assay [1] has as its target cynomolgus monkey CCR8 (Chinese origin) (cynomolgus monkey). Description: flow cytometry on Cy CCR8+ CHO. For orientation: A flow cytometer gives signals particle by particle.
The target of assay [2] is cynomolgus monkey CCR8 (T4R), Mauritian origin (cynomolgus monkey). Nature of the assay: flow cytometry on Cy CCR8 (T4R)+ CHO.
Assay [3] deals with CCR8 P_19-30 peptide construct (human). Description: flow cytometry, peptide construct on streptavidin beads.
Assay [4] addresses CCR8 P_7-18 peptide construct (human). The description is as above.
The target of assay [5] is CCR8 P_1-35 peptide construct (full-length N-terminal peptide of human CCR8) (human). Described as above.
For assay [6], the target named is CCR8 P_13-24 peptide construct (human). The assay is described as above.
The target in assay [7] is CCR8 P_1-12 peptide construct (human). The assay is described as above.
Assay [8] addresses T1, CCR8 P_25-35 peptide construct (human).
T1 sequence (chain, BAP biotinylated in vivo): CDAELIQTNGK
Described as above.

For assay [9], the target named is human CCR8 (human) (UniProt P51685). Description: flow cytometry on HUT-78 (CCR8+/CD3-).
The target is the same in assay [10]. Description: flow cytometry on HUT-78 (CCR8+/CD3+).
The target is the same in assay [11]. Nature of the assay: flow cytometry on hu CCR8+ CHO.
For assay [12], the target named is human CD3 (human) (UniProt P07766). Nature of the assay: flow cytometry on HPB-all.
Chain of human CD3 (human) (P07766 23-207): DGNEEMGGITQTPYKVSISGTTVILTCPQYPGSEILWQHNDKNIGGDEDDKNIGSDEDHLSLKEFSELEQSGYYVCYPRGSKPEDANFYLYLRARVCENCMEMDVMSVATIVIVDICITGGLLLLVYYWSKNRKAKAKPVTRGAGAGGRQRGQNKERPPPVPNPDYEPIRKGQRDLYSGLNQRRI
Assay [13] has as its target cynomolgus CD3 (cynomolgus) (UniProt Q95LI5). Nature of the assay: flow cytometry on LnPx4119.
For assay [14], the target named is human CD3 (human) (UniProt P07766). Nature of the assay: flow cytometry on HUT-78 (CCR8+/CD3+).

Chain of anti-CCR8 antibody clone 433H (BD 747578) (VH): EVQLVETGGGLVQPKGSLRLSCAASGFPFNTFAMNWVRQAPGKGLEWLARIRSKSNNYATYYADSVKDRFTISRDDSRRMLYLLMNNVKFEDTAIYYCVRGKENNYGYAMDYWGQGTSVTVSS
Chain of anti-CCR8 antibody clone 433H (BD 747578) (VL): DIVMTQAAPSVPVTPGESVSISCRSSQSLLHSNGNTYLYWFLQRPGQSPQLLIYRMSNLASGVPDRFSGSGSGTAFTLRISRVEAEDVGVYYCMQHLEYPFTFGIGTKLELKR
Chain of cynomolgus monkey CCR8 (Chinese origin) (cynomolgus monkey) (O97665 other isoform, or with tags, fused parts or gaps): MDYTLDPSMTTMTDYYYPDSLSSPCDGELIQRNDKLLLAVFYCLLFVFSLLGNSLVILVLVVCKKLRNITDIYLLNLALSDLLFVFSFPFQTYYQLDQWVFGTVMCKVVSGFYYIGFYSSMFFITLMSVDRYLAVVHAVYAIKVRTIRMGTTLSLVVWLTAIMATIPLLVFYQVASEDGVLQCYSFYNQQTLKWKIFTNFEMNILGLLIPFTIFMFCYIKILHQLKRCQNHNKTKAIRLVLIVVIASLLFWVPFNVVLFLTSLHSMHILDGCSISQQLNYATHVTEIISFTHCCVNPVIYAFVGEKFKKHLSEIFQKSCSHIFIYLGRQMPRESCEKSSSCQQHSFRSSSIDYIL
Chain of cynomolgus CD3 (cynomolgus) (Q95LI5 22-198): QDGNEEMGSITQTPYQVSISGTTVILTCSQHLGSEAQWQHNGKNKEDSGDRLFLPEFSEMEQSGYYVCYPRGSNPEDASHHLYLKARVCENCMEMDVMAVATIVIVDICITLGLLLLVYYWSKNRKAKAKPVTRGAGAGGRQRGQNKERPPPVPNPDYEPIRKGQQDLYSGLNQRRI
Chain of cynomolgus monkey CCR8 (T4R), Mauritian origin (cynomolgus monkey) (O97665 other isoform, or with tags, fused parts or gaps): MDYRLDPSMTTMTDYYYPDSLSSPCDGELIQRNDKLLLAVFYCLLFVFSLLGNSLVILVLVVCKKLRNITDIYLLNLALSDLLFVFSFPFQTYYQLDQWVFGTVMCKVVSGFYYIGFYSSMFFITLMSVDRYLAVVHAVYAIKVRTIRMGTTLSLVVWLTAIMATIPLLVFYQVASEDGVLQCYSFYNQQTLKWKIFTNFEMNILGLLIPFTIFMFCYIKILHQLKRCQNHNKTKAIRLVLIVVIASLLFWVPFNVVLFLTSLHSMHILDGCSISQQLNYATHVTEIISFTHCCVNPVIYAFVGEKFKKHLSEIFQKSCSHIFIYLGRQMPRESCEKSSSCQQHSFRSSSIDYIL

Take “anti-CCR8 antibody clone 433H (BD 747578)”: the mean BL2 of the sample/mean BL2 of the secondary antibody control turned out to be 136 in assay [1] and 106 in assay [2]. In addition, the Median Fluorescence of Sample/Median Fluorescence of Negative Control in assay [3] worked out at 0.9; in assay [4], 0.9; in assay [5], 290; in assay [6], 300; in assay [7] it was 0.9; in assay [8] it was 0.9.
For the substance “anti-CCR8 antibody clone L263G8 (BioLegend, 360602)”, the mean BL2 of the sample/mean BL2 of the secondary antibody control is 6 in the assay with human CCR8 (human) [9], 9 with human CCR8 (human) [10] and 40 in the assay with human CCR8 (human) [11]. Besides, the Median Fluorescence of Sample/Median Fluorescence of Negative Control worked out at 0.9 in assay [3]; 0.9 in assay [4]; 751 in [5]; 285 in assay [6]; 0.9 in assay [7]; 0.9 in assay [8].
“anti-FLAG antibody (clone M2, Sigma F3165/F1804)”: the Median Fluorescence of Sample/Median Fluorescence of Negative Control worked out at 590 in assay [3]; 589 in [4]; 522 in assay [5]; 628 in assay [6]; 596 in [7]; 582 in assay [8].
For “anti-V5 antibody (clone SV5-Pk1; AbD Serotec, MCA 1360)”, the Median Fluorescence of Sample/Median Fluorescence of Negative Control in assay [3] was 1020; in assay [4] it was 1090; in [5], 953; in [6] it was 1300; in assay [7], 1090; in assay [8], 1090.
For “control TCE molecule (CD3-based TCE molecule recognizing an irrelevant target antigen) (bispecific antibody)”, the mean BL2 of the sample/mean BL2 of the secondary antibody control with human CD3 (human) [12] worked out at 398; in assay [13], 75; with human CD3 (human) [14], 72.

For the origin of these results see patent publication US20250129160A1.
